The record followed here is US6353089B1, “Method for stimulating CTLs with peptides” (Ludwig Institute for Cancer Research, priority 1994, dated 2002).

One experiment has as its target T1, HLA-A2 molecules (Homo sapiens, UniProt P04439, D140Y/D185E/D98H/E176V/E277Q/G131W/G231S/I119V/I121R/I166T/I218V/L300P/L318F/N151K/N90K/P208A/P217A/Q86G/Q94H/R138H/R169H/T345S).
T1 construct: endogenous in cells; host or cells: 174 CEM.T2 (T2) cells
The experiment can be described thus: HLA-A2 binding (stabilization) assay on T2 cells, mean fluorescence ratio. As to conditions: peptide 0.1 mM. The text has this:
To determine whether or not peptides bound to HLA-A2 molecules, cell line 174 CEM.T2 (hereafter “T2”) was used. This cell line is described by Cerundolo et al., Nature 345: 449-452 (1990), and Spies et al., Nature 348: 744-747 (1990), the disclosures of which are incorporated by reference. This is a cell line deficient in the pathway which supplies peptides to the endoplasmic reticulum, the site of assembly of MHC class I heterodimers. It can assemble MHC class-I molecules, but these are unstable, and, on cell lysis, dissociate into free heavy and light chains during overnight incubation. The heterodimers can, however, be stabilized in vitro via addition of appropriate peptide ligands, as per Townsend et al., Nature 340: 443-448 (1989); Townsend et al., Cell 62: […] (1990); Cerundolo et al., supra; Schumacher et al., Nature 350: 703-706 (1991); Elliot et al., Nature 351: 402-406 (1991); Elvin et al., Eur. J. Immunol. 21 : 2025-2031 (1991). The thus stabilized molecules can be immunoprecipitated with antibodies specific for the MHC class-I molecule.
In light of this background, the T2 cells were washed in serum free IMDM medium, and then 1.0×10^6 cells were suspended in 400 ul of the serum free IMDM medium, together with 100 ul synthetic peptide (final concentration: 0.1 mM, 1% DMSO). The mixture was incubated, overnight, at 37° C. Following incubation, the cells were washed and stained, successively, with HLA-A2 specific monoclonal antibody BB7.2, and FITC labelled, binding fragments of polyclonal goat anti-mouse IgG. Fluorescence ratio was calculated by the following formula: [formula]
This yielded the “mean fluorescence ratio” or MFR. In accordance with Nijman et al, supra, an MFR greater than 1.5 indicates binding to HLA-A2.

The next experiment deals with T2 cells. The experiment can be described thus: chromium release assay with CTL 4.2, T2 target cells. The format is cell-based. The following applies: for % 51CR Release: T2 + peptide. Here is the method:
The CTL clone was obtained using T2 cells, in accordance with Houbiers et al., Eur. J. Immunol. 23: 2072 (1993), previously incorporated by reference in its entirety.
Once the CTL clone was isolated, it was used in a chromium release assay in accordance with Boon, et al., J. Exp. Med. 152: 1184 (1980) the disclosure of which is incorporated by reference in its entirety. In addition to T2, cell line SK23, which is an HLA-A2 presenting line, was tested. The results are presented below:
Effector Cell (E): CTL 4.2 Target (T): HLA-A2 cell plus SEQ ID NO: 4

The mark [1] stands for this setting: overnight 37° C., BB7.2 staining, MFR greater than 1.5 indicates binding to HLA-A2.

As for “ALSRKVAEL [Peptide M3-108.116, MAGE-3 derived peptide]”, the “MFR (mean fluorescence ratio)” value in the experiment with HLA-A2 molecules (in some of the experimental runs) is < 1.5); in the experiment with HLA-A2 molecules (setting [1]), 2.17 (and, less than.
Consider “ALVETSYVKV [Peptide M3-277.286, MAGE-3 derived peptide]”, for which, in the experiment with HLA-A2 molecules (setting [1]), the “MFR (mean fluorescence ratio)” value is recorded as 1.8 (and, less than.
Same read-out and setting: the figure for IMPKAGLLI [Peptide M3-195.203] is 2.37.
Regarding KIWEELSVL [Peptide M3-220.228], the “% 51CR Release” value was 57% in the experiment on T2 cells (effector CTL 4.2, E/T ratio 0.5); 84% with T2 cells (effector CTL 4.2, E/T ratio 1.9); 88% in the experiment on T2 cells (effector CTL 4.2, E/T ratio 7.5); 91% in the experiment on T2 cells (effector CTL 4.2, E/T ratio 30). The “lysis of peptide-pulsed target cells by cytolytic T cell clone 4.2” value in the experiment with T2 cells (target cells (T2, SK23) pulsed with peptide, no lysis in the absence of the peptide) is reported as “specifically lysed”.
As for TLVEVTLGEV [Peptide M3-44.53], the “MFR (mean fluorescence ratio)” value with HLA-A2 molecules (setting [1]) came to 3.5.
